# Data published in PMC3294249.
# What was measured:
# [1] = molecular target: Francisella α2NTD (residues 1-242), bacterial two-hybrid fusion (Francisella tularensis subsp. novicida strain U112); experiment: two-hybrid
# [2] = molecular target: Francisella α1NTD (residues 1-244), bacterial two-hybrid fusion (Francisella tularensis subsp. novicida strain U112) (UniProt A0Q4K8); experiment: two-hybrid
Substance,β-galactosidase activity (Miller units) [1] [Miller units],β-galactosidase activity (Miller units) [2] [Miller units]
"Francisella α1NTD (residues 1-244), bacterial two-hybrid fusion (from UniProt A0Q4K8 1-244) (domain or fragment)",662,–
"Francisella α2NTD (residues 1-242), bacterial two-hybrid fusion (domain or fragment)",–,1410
